Holding throughout (type): cell-based
For experiment [1], the target named is T1, rIL-16 (Mus musculus, UniProt O54824).
T1 construct: polyhistidine fusion protein containing the 119 C-terminal residues encoded by the previously reported murine cDNA; polyhistidine (cleaved yes); made in house; host or cells: Escherichia coli strain HMS 174, vector pET16b
T1 sequence (O54824 1204-1322): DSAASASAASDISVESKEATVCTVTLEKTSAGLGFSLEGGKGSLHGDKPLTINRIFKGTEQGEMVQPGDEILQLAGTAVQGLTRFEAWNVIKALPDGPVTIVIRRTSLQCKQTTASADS
The experiment can be described thus: IL-2R (CD25) induction on rIL-16-stimulated murine splenocytes, flow cytometry. How it is done: Induction of IL-2R (CD25) on rIL-16-stimulated murine splenocytes was detected by staining with FITC-conjugated anti-mouse IL-2R Ab (PharMingen). Cells were fixed with 10% formalin and stored at 4° C. in the dark before analysis with a Becton Dickinson FACScan 440 flow cytometer. The % IL-2R^+ cells was determined by subtracting the % isotype control positive from the total % positive events.
Peptides A (SEQ ID NO:15) and C (SEQ ID NO:19) were inhibitory at 10^−7 M, but not 10^−6 M. The negative control peptide D (SEQ ID NO:20) (10^−6 M) had no effect on rIL-16-stimulated IL-2R expression.
Murine splenocytes were incubated in control buffer, rIL-16 alone, or rIL-16 plus the indicated peptide. IL-2R expression was determined by flow cytometry using FITC-conjugated anti-IL-2R antibody. The % IL-2R^+ was determined by subtracting the FITC-conjugated isotype control antibody binding from the FITC-conjugated anti-IL-2R antibody binding. Isotype control antibody binding ranged from 1% to 4%.

For experiment [2], the target named is T2, murine rIL-16 (Mus musculus, UniProt O54824).
T2 construct: polyhistidine fusion protein containing the 119 C-terminal residues encoded by the previously reported murine cDNA; polyhistidine (cleaved yes); made in house; host or cells: Escherichia coli strain HMS 174, vector pET16b
T2 sequence (O54824 1204-1322): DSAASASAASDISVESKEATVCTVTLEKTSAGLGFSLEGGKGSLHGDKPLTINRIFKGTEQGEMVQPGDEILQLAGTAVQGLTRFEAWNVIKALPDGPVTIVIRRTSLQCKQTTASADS
The experiment can be described thus: murine rIL-16-stimulated murine splenocyte migration, modified Boyden chamber. The settings on record: for IL-16-inhibitory activity (block of murine rIL-16-stimulated murine splenocyte migration): peptide concentration not given. How it is done: (§1) Cell migration was assessed using a modified Boyden chamber. […] Cell migration is expressed as the mean % control migration.
(§2) Results from multiple experiments were analyzed using Student's t test for paired variables, and Tukey's test for multiple variables. A P value<0.05 was considered significant.
Peptide B (aa 341-352) includes the sequence WQCLLS (residues 344-349, SEQ ID NO:4) which is 100% conserved in all the species examined. Peptide A (aa 327-338) and peptide C (aa 351-362) correspond to the N-terminal and C-terminal flanks of peptide B, respectively. A random scrambled 12-residue peptide (LSKQKMVSREGT) designated peptide D (SEQ ID NO:20) was used a negative control for nonspecific effects of peptide administration on splenocyte motility. Criteria for the design of peptide D included overall hydrophilicity, neutral charge and no cysteine residues (to prevent possible dimer formation).
Murine spleens were harvested from healthy 8-week male BALB/c mice (Jackson Laboratory). Splenocytes were isolated by grinding spleens between fiysted slides in M199 culture medium (M. A. Bioproducts), supplemented with 0.4% bovine serum albumin, 22 mM HEPES buffer, 100 with U/ml of penicillin, 100 μg/ml streptomycin (M199-HPS). Cells were washed and erytbrocytes were lysed in Gey's solution. Splenocytes were washed twice in M199, and resuspended to a final concentration of 2×10^6 cells/ml in RPMI1640 medium (BioWhittaker) supplemented with 10% FBS, 100 U/ml of penicillin and 100 μg/ml of streptomycin. By flow cytometry, 25% of the isolated splenocytes within the lymphocyte-cloud were CD4^+.
Recombinant murine IL-16 was produced in Escherichia coli (strain HMS 174; Novagen) as a polyhistidine fusion protein containing the 119 C-terminal residues encoded by the previously reported murine cDNA (Keane et al., (1998) J. Immunol. 160: 5945-5954), using the bacterial expression vector pET16b (Novagen). The recombinant product corresponds to the secreted form of natural murine IL-16 following cleavage by caspase-3 (Zhang et al. (1998) J. Biol. Chem. 273:1144-1149). The rIL-16 was purified by metal chelation chromatography, and the polyhistidine tag was cleaved with factor Xa (New England Biolabs).

The target in experiment [3] is T2, murine rIL-16. The experiment in a line: IL-16-stimulated T-lymphocyte migration, human CD4 D4 point mutants. The settings on record: human CD4 D4 wild type or point mutant, rIL-16 10^-9 M. The procedure: Point mutations at Leu 348 and Leu 349 in human CD4 were prepared as follows.
Initially 100 ng of wild type human CD4 cDNA (Richard Axel, Columbia University, N.Y.) contained within the mammalian expression vector pcDNA3.1(−) (Invitrogen, Carlsbad, Calif.) was subjected to the polymerase chain reaction (PCR) in the presence of 125 ng of each set of primer pairs. PCR conditions were as follows:
The time for the elongation step varied according to the relationship of 2 minutes per kilobase of plasmid DNA length. The product was then subjected to restriction digestion with the enzyme Dpn for 1 h. at 37° C. Dpn is specific for methylated nucleotides and therefore will only cut the original wide type CD4-plasmid DNA. The transformation reaction required the addition of 1 μl of the digest to 50 μl of Epicurean Blue Eschericia coli which was incubated on ice for 30 min. and finally heat shocked 42° C., 45 sec to seal the supercompent bacteria. The resultant bacteria culture was selected on ampicillin plates and sequenced to confirm mutagenesis.
as §1, §2
(FIGS. 10A and 10B). […] (FIGS. 11A and 11B).

“Also recorded” adds a separate entry of the source.

As to “LSKQKMVSREGT (OTHER INFORMATION: Description of Artificial Sequence:IL-16 antagonist peptide) [peptide D, random scrambled 12-residue peptide used as negative control, reference compound]”, in experiment [1] (IL-16 + negative control peptide, 10^-6 M), the “% IL-2R+ CELLS” value was found to be 37%. Moreover, the “inhibition of IL-16-stimulated induction of IL-2R” value in experiment [1] (peptide 10^-6 M) is “no effect”.

With “VAPETG (OTHER INFORMATION: Description of Artificial Sequence:IL-16 antagonist peptide) [aa 337-342, bridges peptide A and peptide B]”, in experiment [2] (rIL-16 10^-9 M), the “IL-16-inhibitory activity (block of murine rIL-16-stimulated murine splenocyte migration)” value is reported as “failure; also recorded: lacked inhibitory activity”.

Turning to “VKQVVA (OTHER INFORMATION: Description of Artificial Sequence:IL-16 antagonist peptide) [aa 334 V:K substituted]”, the “reduction of IL-16-stimulated splenocyte migration in combination with peptide B” value in experiment [2] (peptide 10^-6 M plus peptide B fixed 0.5×10^-8 M) and in experiment [2] (peptide 10^-7 M plus peptide B fixed 0.5×10^-8 M) was “reduced IL-16-stimulated splenocyte migration” each time.

Consider “VSEEQK (OTHER INFORMATION: Description of Artificial Sequence:IL-16 antagonist peptide) [N-terminal half of peptide A]”, for which, in experiment [2] (concentration not given, data not shown), the “synergy when combined with peptide B” value was “no synergy”. Moreover, the “IL-16-inhibitory activity (block of murine rIL-16-stimulated murine splenocyte migration)” value in experiment [2] (rIL-16 10^-9 M) is on record as “no inhibitory activity”.

Turning to “VVQKVA (OTHER INFORMATION: Description of Artificial Sequence:IL-16 antagonist peptide) [aa 336 V:K substituted]”, in experiment [2] (peptide 0.5×10^-6 M to 0.5×10^-9 M (any concentration) plus peptide B fixed 0.5×10^-8 M), the “block of IL-16-stimulated splenocyte motility in combination with peptide B” value is given as “did not block IL-16”.

Consider “VVQVVA (OTHER INFORMATION: Description of Artificial Sequence:IL-16 antagonist peptide) [aa 333-338 of mouse CD4 D4, C-terminal half of peptide A]”, for which, in experiment [2] (6-residue peptide 10^-8 M combined with peptide B, data not shown), the “synergistic activity with peptide B” value is “synergistic activity”. Besides, in experiment [2] (peptide 10^-6 M, rIL-16 10^-9 M), the “inhibition of rIL-16-induced splenocyte migration” value is “inhibited rIL16-induced splenocyte migration”.

As to “WACLLS (OTHER INFORMATION: Description of Artificial Sequence:IL-16 antagonist peptide) [aa 345 Q:A substituted]”, the “IL-16-inhibitory activity (block of murine rIL-16-stimulated murine splenocyte migration)” value in experiment [2] (rIL-16 10^-9 M) is listed as “failed to block IL-16”.

Turning to “WQALLS (OTHER INFORMATION: Description of Artificial Sequence:IL-16 antagonist peptide) [aa 346 C:A substituted]”, in experiment [2] (rIL-16 10^-9 M), the “IL-16-inhibitory activity (block of murine rIL-16-stimulated murine splenocyte migration)” value is “equally as effective as the native WQCLLS”.

For “WQCELS (OTHER INFORMATION: Description of Artificial Sequence:IL-16 antagonist peptide) [aa 347 L:E substituted]”, the “IL-16-inhibitory activity (block of murine rIL-16-stimulated murine splenocyte migration)” value in experiment [2] (rIL-16 10^-9 M) is recorded as “failed to block IL-16”.

Turning to “WQCLLS (OTHER INFORMATION: Description of Artificial Sequence:IL-16 antagonist peptide) [aa 344-349 of mouse CD4 D4]”, the “inhibition of IL-16 (splenocyte migration)” value in experiment [2] (peptide 10^-7 M, rIL-16 10^-9 M) is reported as “inhibited IL-16”.

B1: rIL-16: recombinant murine IL-16, 119 C-terminal residues, produced in Escherichia coli (protein)
chain: DSAASASAASDISVESKEATVCTVTLEKTSAGLGFSLEGGKGSLHGDKPLTINRIFKGTEQGEMVQPGDEILQLAGTAVQGLTRFEAWNVIKALPDGPVTIVIRRTSLQCKQTTASADS
On to B1, for which the “% IL-2R+ CELLS” value in experiment [1] (rIL-16 10^-9 M alone, no stimulation 24) worked out at 36%. Besides, the “increase of basal IL-2R expression” value in experiment [1] (rIL-16 alone, murine splenocytes) was 50%.

B2: NLTCEVWGPTSPKLMLSLKLENKEAKVSKREKAVWVLNPEAGMWQCLLSDSGQVLLESNIKVLPTWSTPVQPM (peptide)
chain: NLTCEVWGPTSPKLMLSLKLENKEAKVSKREKAVWVLNPEAGMWQCLLSDSGQVLLESNIKVLPTWSTPVQPM
modifications: OTHER INFORMATION: Description of Artificial Sequence:IL-16 antagonist peptide
notes: aa 302-374 of human CD4 D4
With B2, the “inhibition of IL-16-stimulated T-lymphocyte migration” value in experiment [3] is recorded as “IL-16-inhibitory activity”.

B3: … (peptide)
chain: NLTCEVWGPTSPKLMLSLKLENKEAKVSKREKAVWVLNPEAGMWQCILSDSGQVLLESNIKVLPTWSTPVQPM
modifications: OTHER INFORMATION: Description of Artificial Sequence:IL-16 antagonist peptide
notes: human CD4 D4 with Isoleucine substituted at position 348
As to B3, the figures for the “inhibition of IL-16-stimulated T-lymphocyte migration” value in experiment [3] and in experiment [3] (listed as Leucine 348 was conservatively substituted with Isoleucine) were “maintained partial ability to inhibit” and “Partial inhibition”, respectively.

B4: NLTCEVWGPTSPKLMLSLKLENKEAKVSKREKAVWVLNPEAGMWQCSLSDSGQVLLESNIKVLPTWSTPVQPM (peptide)
chain: NLTCEVWGPTSPKLMLSLKLENKEAKVSKREKAVWVLNPEAGMWQCSLSDSGQVLLESNIKVLPTWSTPVQPM
modifications: OTHER INFORMATION: Description of Artificial Sequence:IL-16 antagonist peptide
notes: human CD4 D4 with leucine 348 to serine
With B4, the “inhibition of IL-16-stimulated T-lymphocyte migration” value in experiment [3] was “lost the ability to inhibit”; in experiment [3] (listed as human CD4 (L348→S)) it was “complete loss in inhibition”.

B5: NLTCEVWGPTSPKLMLSLKLENKEAKVSKREKAVWVLNPEAGMWQCLSSDSGQVLLESNIKVLPTWSTPVQPM (peptide)
chain: NLTCEVWGPTSPKLMLSLKLENKEAKVSKREKAVWVLNPEAGMWQCLSSDSGQVLLESNIKVLPTWSTPVQPM
modifications: OTHER INFORMATION: Description of Artificial Sequence:IL-16 antagonist peptide
notes: human CD4 D4 with leucine 349 to serine
For the molecule B5, the “inhibition of IL-16-stimulated T-lymphocyte migration” value in experiment [3] is given as “lost the ability to inhibit”; in experiment [3] (listed as human CD4 (L349→S)), “complete loss in inhibition”.

The values above are taken from patent US6723697B2, “IL-16 antagonists” (Research Corporation Technologies, Inc., priority 1999, dated 2004).
